Assay results taken from patent publication US20200199241A1 (Chugai, published 2020).

The binders below were run against T1, human FcRn (soluble human FcRn complexed with β2-microglobulin) (human, UniProt P61769 21-119, limits assumed) (assay: SPR, pH 7.0;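 note: antibodies captured on a Protein L sensor chip with human FcRn injected as analyte, KD calculated from fitted association and dissociation rate constants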).
T1 construct: also called hFcRn

Kd	Binder
36 nM	IgG1-F140 (antibody, copies: 2 + 2) heavy: QVQLQESGPGLVKPSETLSLTCAVSGHSISHDHAWSWVRQPPGEGLEWIGFISYSGITNYNPSLQGRVTISRDNSKNTLYLQMNSLRAEDTAVYYCARSLARTTAMDYWGEGTLVTVSSASTKGPSVFPLAPSSKSTSGGTAALGCLVKDYFPEPVTVSWNSGALTSGVHTFPAVLQSSGLYSLSSVVTVPSSSLGTQTYICNVNHKPSNTKVDKKVEPKSCDKTHTCPPCPAPELLGGPKVFLFPPKPKDTLYISRTPEVTCVVVDVSHEDPEVKFNWYVDGVEVHNAKTKPREEQYNSTYRVVSVLTPLHQDWLNGKEYKCKVSNKALPAPIEKTISKAKGQPREPQVYTLPPSRDELTKNQVSLTCLVKGFYPSDIAVEWESNGQPENNYKTTPPVLDSDGSFFLYSKLTVDKSRWQQGNVFSCSVMHEALHYHYTQKSLSLSP light: not shown
37 nM	IgG1-F142 (antibody, EU numbering; copies: 2 + 2) heavy: QVQLQESGPGLVKPSETLSLTCAVSGHSISHDHAWSWVRQPPGEGLEWIGFISYSGITNYNPSLQGRVTISRDNSKNTLYLQMNSLRAEDTAVYYCARSLARTTAMDYWGEGTLVTVSSASTKGPSVFPLAPSSKSTSGGTAALGCLVKDYFPEPVTVSWNSGALTSGVHTFPAVLQSSGLYSLSSVVTVPSSSLGTQTYICNVNHKPSNTKVDKKVEPKSCDKTHTCPPCPAPELLGGPSVFLFPPKPKDTLYISRTPEVTCVVVDVSHEFPEVKFNWYVDGVEVHNAKTKPREEQYNSTYRVVSVLTPLHQDWLNGKEYKCKVSNKALPAPIEKTISKAKGQPREPQVYTLPPSRDELTKNQVSLTCLVKGFYPSDIAVEWESNGQPENNYKTTPPVLDSDGSFFLYSKLTVDKSRWQQGNVFSCSVMHEALHYHYTQKSLSLSP light: not shown
270 nM	IgG1-F152 (antibody, EU numbering; copies: 2 + 2) heavy: QVQLQESGPGLVKPSETLSLTCAVSGHSISHDHAWSWVRQPPGEGLEWIGFISYSGITNYNPSLQGRVTISRDNSKNTLYLQMNSLRAEDTAVYYCARSLARTTAMDYWGEGTLVTVSSASTKGPSVFPLAPSSKSTSGGTAALGCLVKDYFPEPVTVSWNSGALTSGVHTFPAVLQSSGLYSLSSVVTVPSSSLGTQTYICNVNHKPSNTKVDKKVEPKSCDKTHTCPPCPAPELLGGPSVFLFPPKPKDTLYISRTPEVTCVVVDVSHEDPEVKFNWYVDGVEVHNAKTKPREEQYNSTYRVVSVLTQLHQDWLNGKEYKCKVSNKALPAPIEKTISKAKGQPREPQVYTLPPSRDELTKNQVSLTCLVKGFYPSDIAVEWESNGQPENNYKTTPPVLDSDGSFFLYSKLTVDKSRWQQGNVFSCSVMHEALHYHYTQKSLSLSP light: not shown
180 nM	IgG1-F154 (antibody, EU numbering; copies: 2 + 2) heavy: QVQLQESGPGLVKPSETLSLTCAVSGHSISHDHAWSWVRQPPGEGLEWIGFISYSGITNYNPSLQGRVTISRDNSKNTLYLQMNSLRAEDTAVYYCARSLARTTAMDYWGEGTLVTVSSASTKGPSVFPLAPSSKSTSGGTAALGCLVKDYFPEPVTVSWNSGALTSGVHTFPAVLQSSGLYSLSSVVTVPSSSLGTQTYICNVNHKPSNTKVDKKVEPKSCDKTHTCPPCPAPELLGGPSVFLFPPKPKDTLYISRTPEVTCVVVDVSHEDPEVKFNWYVDGVEVHNAKTKPREEQYNSTYRVVSVLTTLHQDWLNGKEYKCKVSNKALPAPIEKTISKAKGQPREPQVYTLPPSRDELTKNQVSLTCLVKGFYPSDIAVEWESNGQPENNYKTTPPVLDSDGSFFLYSKLTVDKSRWQQGNVFSCSVMHEALHYHYTQKSLSLSP light: not shown
850 nM	IgG1-F160 (antibody, EU numbering; copies: 2 + 2) heavy: QVQLQESGPGLVKPSETLSLTCAVSGHSISHDHAWSWVRQPPGEGLEWIGFISYSGITNYNPSLQGRVTISRDNSKNTLYLQMNSLRAEDTAVYYCARSLARTTAMDYWGEGTLVTVSSASTKGPSVFPLAPSSKSTSGGTAALGCLVKDYFPEPVTVSWNSGALTSGVHTFPAVLQSSGLYSLSSVVTVPSSSLGTQTYICNVNHKPSNTKVDKKVEPKSCDKTHTCPPCPAPELLGGPSVFLFPPKPKDTLWISRTPEVTCVVVDVSHEDPEVKFNWYVDGVEVHNAKTKPREEQYNSTYRVVSVLTVLHQDWLNGKEYKCKVSNKALPAPIEKTISKAKGQPREPQVYTLPPSRDELTKNQVSLTCLVKGFYPSDIAVEWESNGQPENNYKTTPPVLDSDGSFFLYSKLTVDKSRWQQGNVFSCSVIHEALHYHYTQKSLSLSP light: not shown
200 nM	IgG1-F143 (antibody, EU numbering; copies: 2 + 2) heavy: QVQLQESGPGLVKPSETLSLTCAVSGHSISHDHAWSWVRQPPGEGLEWIGFISYSGITNYNPSLQGRVTISRDNSKNTLYLQMNSLRAEDTAVYYCARSLARTTAMDYWGEGTLVTVSSASTKGPSVFPLAPSSKSTSGGTAALGCLVKDYFPEPVTVSWNSGALTSGVHTFPAVLQSSGLYSLSSVVTVPSSSLGTQTYICNVNHKPSNTKVDKKVEPKSCDKTHTCPPCPAPELLGGPSVFLFPPKPKDTLYISRTPEVTCVVVDVSHEDPEVKFNWYVDGVEVHNAKTKPREEQYNSTYRVVSVLTALHQDWLNGKEYKCKVSNKALPAPIEKTISKAKGQPREPQVYTLPPSRDELTKNQVSLTCLVKGFYPSDIAVEWESNGQPENNYKTTPPVLDSDGSFFLYSKLTVDKSRWQQGNVFSCSVMHEALHYHYTQKSLSLSP light: not shown
190 nM	IgG1-F149 (antibody, EU numbering; copies: 2 + 2) heavy: QVQLQESGPGLVKPSETLSLTCAVSGHSISHDHAWSWVRQPPGEGLEWIGFISYSGITNYNPSLQGRVTISRDNSKNTLYLQMNSLRAEDTAVYYCARSLARTTAMDYWGEGTLVTVSSASTKGPSVFPLAPSSKSTSGGTAALGCLVKDYFPEPVTVSWNSGALTSGVHTFPAVLQSSGLYSLSSVVTVPSSSLGTQTYICNVNHKPSNTKVDKKVEPKSCDKTHTCPPCPAPELLGGPSVFLFPPKPKDTLYISRTPEVTCVVVDVSHEDPEVKFNWYVDGVEVHNAKTKPREEQYNSTYRVVSVLTLLHQDWLNGKEYKCKVSNKALPAPIEKTISKAKGQPREPQVYTLPPSRDELTKNQVSLTCLVKGFYPSDIAVEWESNGQPENNYKTTPPVLDSDGSFFLYSKLTVDKSRWQQGNVFSCSVMHEALHYHYTQKSLSLSP light: not shown
35 nM	IgG1-F141 (antibody, EU numbering; copies: 2 + 2) heavy: QVQLQESGPGLVKPSETLSLTCAVSGHSISHDHAWSWVRQPPGEGLEWIGFISYSGITNYNPSLQGRVTISRDNSKNTLYLQMNSLRAEDTAVYYCARSLARTTAMDYWGEGTLVTVSSASTKGPSVFPLAPSSKSTSGGTAALGCLVKDYFPEPVTVSWNSGALTSGVHTFPAVLQSSGLYSLSSVVTVPSSSLGTQTYICNVNHKPSNTKVDKKVEPKSCDKTHTCPPCPAPELLGGPSVFLFPPKPKDTLYISRTPEVTCVVVDVSHEDPEVKFNWYVDGVEVHNAKTKPREEQYNGTYRVVSVLTPLHQDWLNGKEYKCKVSNKALPAPIEKTISKAKGQPREPQVYTLPPSRDELTKNQVSLTCLVKGFYPSDIAVEWESNGQPENNYKTTPPVLDSDGSFFLYSKLTVDKSRWQQGNVFSCSVMHEALHYHYTQKSLSLSP light: not shown
44 nM	IgG1-F159 (antibody, EU numbering; copies: 2 + 2) heavy: QVQLQESGPGLVKPSETLSLTCAVSGHSISHDHAWSWVRQPPGEGLEWIGFISYSGITNYNPSLQGRVTISRDNSKNTLYLQMNSLRAEDTAVYYCARSLARTTAMDYWGEGTLVTVSSASTKGPSVFPLAPSSKSTSGGTAALGCLVKDYFPEPVTVSWNSGALTSGVHTFPAVLQSSGLYSLSSVVTVPSSSLGTQTYICNVNHKPSNTKVDKKVEPKSCDKTHTCPPCPAPELLGGPSVFLFPPKPKDTLMISRTVEVTCVVVDVSHEDPEVKFNWYVDGVEVHNAKTKPREEQYNSTYRVVSVLTPLHQDWLNGKEYKCKVSNKALPAPIEKTISKAKGQPREPQVYTLPPSRDELTKNQVSLTCLVKGFYPSDIAVEWESNGQPENNYKTTPPVLDSDGSFFLYSKLTVDKSRWQQGNVFSCSVLHEALHYHYTQKSLSLSP light: not shown
53 nM	IgG1-F145 (antibody, EU numbering; copies: 2 + 2) heavy: QVQLQESGPGLVKPSETLSLTCAVSGHSISHDHAWSWVRQPPGEGLEWIGFISYSGITNYNPSLQGRVTISRDNSKNTLYLQMNSLRAEDTAVYYCARSLARTTAMDYWGEGTLVTVSSASTKGPSVFPLAPSSKSTSGGTAALGCLVKDYFPEPVTVSWNSGALTSGVHTFPAVLQSSGLYSLSSVVTVPSSSLGTQTYICNVNHKPSNTKVDKKVEPKSCDKTHTCPPCPAPELLGGPSVFLFPPKPKDTLYISRTPEVTCVVVDVSHEDPEVKFNWYVDGVEVHNAKTKPREEQYNSTYRVVSVLTFLHQDWLNGKEYKCKVSNKALPAPIEKTISKAKGQPREPQVYTLPPSRDELTKNQVSLTCLVKGFYPSDIAVEWESNGQPENNYKTTPPVLDSDGSFFLYSKLTVDKSRWQQGNVFSCSVMHEALHYHYTQKSLSLSP light: not shown
59 nM	IgG1-F158 (antibody, EU numbering; copies: 2 + 2) heavy: QVQLQESGPGLVKPSETLSLTCAVSGHSISHDHAWSWVRQPPGEGLEWIGFISYSGITNYNPSLQGRVTISRDNSKNTLYLQMNSLRAEDTAVYYCARSLARTTAMDYWGEGTLVTVSSASTKGPSVFPLAPSSKSTSGGTAALGCLVKDYFPEPVTVSWNSGALTSGVHTFPAVLQSSGLYSLSSVVTVPSSSLGTQTYICNVNHKPSNTKVDKKVEPKSCDKTHTCPPCPAPELLGGPSVFLFPPKPKDTLMISRTTEVTCVVVDVSHEDPEVKFNWYVDGVEVHNAKTKPREEQYNSTYRVVSVLTPLHQDWLNGKEYKCKVSNKALPAPIEKTISKAKGQPREPQVYTLPPSRDELTKNQVSLTCLVKGFYPSDIAVEWESNGQPENNYKTTPPVLDSDGSFFLYSKLTVDKSRWQQGNVFSCSVLHEALHYHYTQKSLSLSP light: not shown
150 nM	IgG1-F157 (antibody, copies: 2 + 2) heavy: QVQLQESGPGLVKPSETLSLTCAVSGHSISHDHAWSWVRQPPGEGLEWIGFISYSGITNYNPSLQGRVTISRDNSKNTLYLQMNSLRAEDTAVYYCARSLARTTAMDYWGEGTLVTVSSASTKGPSVFPLAPSSKSTSGGTAALGCLVKDYFPEPVTVSWNSGALTSGVHTFPAVLQSSGLYSLSSVVTVPSSSLGTQTYICNVNHKPSNTKVDKKVEPKSCDKTHTCPPCPAPELLGGPSVFLFPPKPKDTLMISRTAEVTCVVVDVSHEDPEVKFNWYVDGVEVHNAKTKPREEQYNSTYRVVSVLTPLHQDWLNGKEYKCKVSNKALPAPIEKTISKAKGQPREPQVYTLPPSRDELTKNQVSLTCLVKGFYPSDIAVEWESNGQPENNYKTTPPVLDSDGSFFLYSKLTVDKSRWQQGNVFSCSVLHEALHYHYTQKSLSLSP light: not shown
240 nM	IgG1-F147 (antibody, EU numbering; copies: 2 + 2) heavy: QVQLQESGPGLVKPSETLSLTCAVSGHSISHDHAWSWVRQPPGEGLEWIGFISYSGITNYNPSLQGRVTISRDNSKNTLYLQMNSLRAEDTAVYYCARSLARTTAMDYWGEGTLVTVSSASTKGPSVFPLAPSSKSTSGGTAALGCLVKDYFPEPVTVSWNSGALTSGVHTFPAVLQSSGLYSLSSVVTVPSSSLGTQTYICNVNHKPSNTKVDKKVEPKSCDKTHTCPPCPAPELLGGPSVFLFPPKPKDTLYISRTPEVTCVVVDVSHEDPEVKFNWYVDGVEVHNAKTKPREEQYNSTYRVVSVLTILHQDWLNGKEYKCKVSNKALPAPIEKTISKAKGQPREPQVYTLPPSRDELTKNQVSLTCLVKGFYPSDIAVEWESNGQPENNYKTTPPVLDSDGSFFLYSKLTVDKSRWQQGNVFSCSVMHEALHYHYTQKSLSLSP light: not shown
